Measured values as given in article PMC10403546.

Experiments:
[1] = target: X16 UFO (CRF07_BC Env), uncleaved prefusion-optimized Env trimer of isolate BJOX016000.e15 (HIV-1); assay: cryo-EM structure
[2] = target: X18 UFO (CRF01_AE Env), uncleaved prefusion-optimized Env trimer of isolate BJOX018000.e12 (HIV-1); assay: negative stain EM
[3] = target: X18 UFO (CRF01_AE Env), uncleaved prefusion-optimized Env trimer of isolate BJOX018000.e12 (HIV-1); assay: cryo-EM structure

Substance	stoichiometry N [1]	percentage of intact Env trimers, 8ANC195-bound, over 18 h [2]	percentage of intact Env trimers, F6-bound, 1 h [2]	percentage of intact Env trimers, F6-bound, 7 h [2]	stoichiometry N [3]
X16 UFO (CRF07_BC Env), uncleaved prefusion-optimized Env trimer of isolate BJOX016000.e15 (natural protein)	3	–	–	–	–
X18 UFO (CRF01_AE Env), uncleaved prefusion-optimized Env trimer of isolate BJOX018000.e12 (natural protein)	–	90%	83%	48%	3
